Assay results as given in patent US11137400.

T1: Affinity-purified GST-tagged hXBP1s S288A mutant
T1 chain: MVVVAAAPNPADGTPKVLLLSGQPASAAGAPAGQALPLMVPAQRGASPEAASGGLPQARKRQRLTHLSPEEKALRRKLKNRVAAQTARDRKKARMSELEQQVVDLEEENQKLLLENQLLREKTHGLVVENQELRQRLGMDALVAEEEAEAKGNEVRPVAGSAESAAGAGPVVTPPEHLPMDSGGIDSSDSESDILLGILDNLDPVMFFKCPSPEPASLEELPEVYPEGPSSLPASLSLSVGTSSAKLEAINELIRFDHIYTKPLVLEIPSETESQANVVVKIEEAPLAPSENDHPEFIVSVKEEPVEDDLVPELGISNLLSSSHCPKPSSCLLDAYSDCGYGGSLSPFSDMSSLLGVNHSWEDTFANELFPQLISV

T2: Affinity-purified GST-tagged wild type (WT) hXBP1s
T2 chain: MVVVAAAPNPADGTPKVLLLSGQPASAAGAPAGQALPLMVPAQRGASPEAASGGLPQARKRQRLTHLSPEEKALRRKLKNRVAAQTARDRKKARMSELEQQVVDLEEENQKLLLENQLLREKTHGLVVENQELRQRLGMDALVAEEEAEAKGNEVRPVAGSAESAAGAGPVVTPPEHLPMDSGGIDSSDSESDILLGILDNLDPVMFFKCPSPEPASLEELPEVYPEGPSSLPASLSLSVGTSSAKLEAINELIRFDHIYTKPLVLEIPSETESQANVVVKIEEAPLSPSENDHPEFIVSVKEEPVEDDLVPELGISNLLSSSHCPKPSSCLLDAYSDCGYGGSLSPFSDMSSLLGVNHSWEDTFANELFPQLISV

T3: HA tagged hXBP1s (HA-hXBP1s), wild type, expressed in HEK293T cells
T3 chain: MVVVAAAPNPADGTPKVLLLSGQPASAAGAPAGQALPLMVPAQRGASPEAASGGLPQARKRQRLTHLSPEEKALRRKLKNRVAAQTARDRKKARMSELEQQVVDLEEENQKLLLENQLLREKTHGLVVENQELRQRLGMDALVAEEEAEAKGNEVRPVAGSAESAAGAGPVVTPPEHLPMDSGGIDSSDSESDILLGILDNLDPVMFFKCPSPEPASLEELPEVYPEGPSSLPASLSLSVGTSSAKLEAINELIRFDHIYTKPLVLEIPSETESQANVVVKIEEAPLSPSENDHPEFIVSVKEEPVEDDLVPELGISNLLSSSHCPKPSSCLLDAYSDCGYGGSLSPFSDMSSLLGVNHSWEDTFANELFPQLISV


Tests used:
[1] = biological target: T1, Affinity-purified GST-tagged hXBP1s …
[2] = biological target: T2, Affinity-purified GST-tagged wild type …
[3] = biological target: T3, HA tagged hXBP1s (HA-hXBP1s), wild …

| Protein | in vitro kinase assay, phosphorylation in the presence of ^32P (autoradiography) [1] | in vitro kinase assay, phosphorylation in the presence of ^32P (autoradiography) [2] | ubiquitination assay (conjugation of MYC-Ub to HA-hXBP1s, anti-HA immunoprecipitation probed with anti-MYC) [3] |
| --- | --- | --- | --- |
| Active recombinant human JNK1α1 (Millipore) (protein) MSRSKRDNNFYSVEIGDSTFTVLKRYQNLKPIGSGAQGIVCAAYDAILERNVAIKKLSRPFQNQTHAKRAYRELVLMKCVNHKNIIGLLNVFTPQKSLEEFQDVYIVMELMDANLCQVIQMELDHERMSYLLYQMLCGIKHLHSAGIIHRDLKPSNIVVKSDCTLKILDFGLARTAGTSFMMTPYVVTRYYRAPEVILGMGYKENVDLWSVGCIMGEMVCHKILFPGRDYIDQWNKVIEQLGTPCPEFMKKLQPTVRTYVENRPKYAGYSFEKLFPDVLFPADSEHNKLKASQARDLLSKMLVIDASKRISVDEALQHPYINVWYDPSEAEAPPPKIPDKQLDEREHTIEEWKELIYKEVMDLEERTKNGVIRGQPSPLAQVQQ | mutation of Ser288 to A abolished JNKs-mediated phosphorylation of hXBP1s | JNK1, JNK2 or JNK3 was sufficient to directly phosphorylate hXBP1s |  |
| Active recombinant human JNK3 (Millipore) (protein) MSLHFLYYCSEPTLDVKIAFCQGFDKQVDVSYIAKHYNMSKSKVDNQFYSVEVGDSTFTVLKRYQNLKPIGSGAQGIVCAAYDAVLDRNVAIKKLSRPFQNQTHAKRAYRELVLMKCVNHKNIISLLNVFTPQKTLEEFQDVYLVMELMDANLCQVIQMELDHERMSYLLYQMLCGIKHLHSAGIIHRDLKPSNIVVKSDCTLKILDFGLARTAGTSFMMTPYVVTRYYRAPEVILGMGYKENVDIWSVGCIMGEMVRHKILFPGRDYIDQWNKVIEQLGTPCPEFMKKLQPTVRNYVENRPKYAGLTFPKLFPDSLFPADSEHNKLKASQARDLLSKMLVIDPAKRISVDDALQHPYINVWYDPAEVEAPPPQIYDKQLDEREHTIEEWKELIYKEVMNSEEKTKNGVVKGQPSPSGAAVNSSESLPPSSSVNDISSMSTDQTLASDTDSSLEASAGPLGCCR | mutation of Ser288 to A abolished JNKs-mediated phosphorylation of hXBP1s | JNK1, JNK2 or JNK3 was sufficient to directly phosphorylate hXBP1s |  |
| FLAG-β-TrCP1, expressed in HEK293T cells (protein) MDPAEAVLQEKALKFMCSMPRSLWLGCSSLADSMPSLRCLYNPGTGALTAFQNSSEREDCNNGEPPRKIIPEKNSLRQTYNSCARLCLNQETVCLASTAMKTENCVAKTKLANGTSSMIVPKQRKLSASYEKEKELCVKYFEQWSESDQVEFVEHLISQMCHYQHGHINSYLKPMLQRDFITALPARGLDHIAENILSYLDAKSLCAAELVCKEWYRVTSDGMLWKKLIERMVRTDSLWRGLAERRGWGQYLFKNKPPDGNAPPNSFYRALYPKIIQDIETIESNWRCGRHSLQRIHCRSETSKGVYCLQYDDQKIVSGLRDNTIKIWDKNTLECKRILTGHTGSVLCLQYDERVIITGSSDSTVRVWDVNTGEMLNTLIHHCEAVLHLRFNNGMMVTCSKDRSIAVWDMASPTDITLRRVLVGHRAAVNVVDFDDKYIVSASGDRTIKVWNTSTCEFVRTLNGHKRGIACLQYRDRLVVSGSSDNTIRLWDIECGACLRVLEGHEELVRCIRFDNKRIVSGAYDGKIKVWDLVAALDPRAPAGTLCLRTLVEHSGRVFRLQFDEFQIVSSSHDDTILIWDFLNDPAAQAEPPRSPSRTYTYISR |  |  | ectopically expressed β-TrCP greatly promoted the conjugation of ubiquitin to HA-hXBP1s |
